Laboratory results reported in paper PMC13234300, “De novo and scaffold-based design of GDF15 binders for cancer cachexia diagnostics and therapeutics” (Experimental & Molecular Medicine, 2026).

How the values were obtained:
[1] = biological target: recombinant mature human GDF15 dimer, N-glyco-engineered variant (R198N and G200T), Twin-Strep tagged (human) (UniProt Q99988); test: SPR
[2] = biological target: T1, recombinant mature human GDF15 dimer, N-glyco-engineered variant (R198N and G200T), Twin-Strep tagged (human, UniProt Q99988 198-308, R198N | G200T); test: SPR; Biacore T200; GDF15 dimer immobilised on CM5 chip by amine coupling (10 mM sodium acetate, pH 5.5); HBS-EP+ (0.01 M HEPES pH 7.4, 0.15 M NaCl, 3 mM EDTA, 0.05% P20); analytes 5-100 nM, 300 s association, 300 s dissociation, 30 μl/min; two-state reaction model; details: both partners purified
T1 construct: mature human GDF15, residues 198–308, N-glyco-engineered variant (R198N and G200T); no cleavage step is described (eluted with desthiobiotin, then SEC); also called Twin-Strep-GDF15 dimer; growth differentiation factor-15; source: Expi293F, transfected, purified from supernatant (Strep-Tactin-XT, SEC)
T1 sequence (looked up): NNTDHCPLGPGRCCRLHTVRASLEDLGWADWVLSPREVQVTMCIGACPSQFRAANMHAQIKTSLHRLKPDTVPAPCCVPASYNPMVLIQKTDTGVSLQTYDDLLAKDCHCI

[3] = biological target: T1, recombinant mature human GDF15 dimer, …; test: SPR; Biacore T200; GDF15 dimer immobilised on CM5 chip by amine coupling; HBS-EP+; analyte 5-50 nM in the figure; 1:1 binding model; apparent (avidity of the Fc dimer); details: both partners purified
[4] = biological target: T2, recombinant mature human GDF15 dimer, N-glyco-engineered variant (R198N and G200T), Twin-Strep tagged (human, UniProt Q99988 198-308, R198N | G200T); test: SPR
T2 sequence: T1 sequence (looked up)

Molecule: ponsegromab
- Kd [1]: 0.0802 nM
- koff [1]: 2.24e-05 s⁻¹

B1: human GFRAL D2 domain (residues 115–217) (domain or fragment, UniProt Q6UXV0 115-217, looked up)
chain: WNLTTRSHHGFKGMWSCLEVAEACVGDVVCNAQLASYLKACSANGNPCDLKQCQAAIRFFYQNIPFNIAQMLAFCDCAQSDIPCQQSKEALHSKTCAVNMVPP
notes: human GFRAL (glial cell-derived neurotrophic factor family receptor alpha-like), D2 domain, residues 115–217; the expressed construct as residues 115–217; also called hGFRAL D2; initial scaffold; source: Expi293F, transfected, purified (protein A, on-resin thrombin cleavage, SEC); not shown: Fc, C-terminal, cleaved
- Kd [2]: 90.4 nM

B2: SGA2-4-Fc (Fc-fused SGA2-4 binder, homodimeric decoy receptor) (Fc fusion)
chain: VTVFEALDAIIADPQSNAALAAHLKAVAALPADATKAQVDAIYDAFLAQLPAEVRAKVLAAKPDPTNPDEIQLYNQLRGYDKL
modifications: Homodimer through a C-terminal human IgG Fc (isotype and limits not given). The Fc, thrombin site and 6xHis tag are left out; the Fc only provides bivalency/avidity. Expressed in mammalian cells.
- Kd [3]: 0.081 nM
- koff [4]: 7.16e-05 s⁻¹
